# Laboratory results reported in paper PMC11110392, “A first-in-class inhibitor of HSP110 to potentiate XPO1-targeted therapy in primary mediastinal B-cell lymphoma and classical Hodgkin lymphoma” (Journal of Experimental & Clinical Cancer Research : CR, 2024).
# Target: T1, His-tagged HSP110 (recombinant) (UniProt Q92598 1-858, non-covalent RED-Tris-NTA 2nd generation dye on the His tag)
# T1 construct: recombinant HSP110, OriGene TP307102; also called recombinant HSP110; TP307102; source: bought: OriGene (TP307102)
# T1 sequence (Q92598 whole entry): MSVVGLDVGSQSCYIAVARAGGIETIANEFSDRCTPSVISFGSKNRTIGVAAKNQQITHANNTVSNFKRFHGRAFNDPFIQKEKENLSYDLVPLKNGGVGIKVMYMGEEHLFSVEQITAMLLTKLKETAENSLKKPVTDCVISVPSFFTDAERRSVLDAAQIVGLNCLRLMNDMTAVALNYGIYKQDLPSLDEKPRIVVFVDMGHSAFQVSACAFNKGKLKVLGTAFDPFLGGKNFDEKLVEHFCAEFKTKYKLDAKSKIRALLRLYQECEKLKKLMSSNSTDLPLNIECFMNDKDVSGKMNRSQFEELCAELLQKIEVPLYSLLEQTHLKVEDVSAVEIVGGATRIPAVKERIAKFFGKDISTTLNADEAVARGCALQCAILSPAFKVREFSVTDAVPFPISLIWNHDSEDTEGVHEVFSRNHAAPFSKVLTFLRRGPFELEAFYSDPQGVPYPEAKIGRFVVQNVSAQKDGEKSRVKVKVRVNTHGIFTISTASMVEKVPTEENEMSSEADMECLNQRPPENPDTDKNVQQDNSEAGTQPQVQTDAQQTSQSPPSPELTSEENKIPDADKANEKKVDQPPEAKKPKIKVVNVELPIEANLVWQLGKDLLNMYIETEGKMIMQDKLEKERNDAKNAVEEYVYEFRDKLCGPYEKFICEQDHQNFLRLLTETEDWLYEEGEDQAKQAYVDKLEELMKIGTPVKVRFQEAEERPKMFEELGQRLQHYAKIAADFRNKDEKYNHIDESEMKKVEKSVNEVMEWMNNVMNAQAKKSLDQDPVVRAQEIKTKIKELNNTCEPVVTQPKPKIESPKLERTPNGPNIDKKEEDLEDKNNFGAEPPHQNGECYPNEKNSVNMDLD
# Assay: MST; Monolith NT.115; His-tagged HSP110 labelled with RED-Tris-NTA 2nd generation, fixed at 50 nM; STAT6 titrated from 2.39 µM to 0.07 nM
# Details: both partners purified
binder,measurement,value
"STAT6 (recombinant) (natural protein, UniProt P42226 1-847, looked up, recombinant STAT6, Abcam ab125625; also called recombinant STAT6; ab125625; source: bought: Abcam (ab125625)) MSLWGLVSKMPPEKVQRLYVDFPQHLRHLLGDWLESQPWEFLVGSDAFCCNLASALLSDTVQHLQASVGEQGEGSTILQHISTLESIYQRDPLKLVATFRQILQGEKKAVMEQFRHLPMPFHWKQEELKFKTGLRRLQHRVGEIHLLREALQKGAEAGQVSLHSLIETPANGTGPSEALAMLLQETTGELEAAKALVLKRIQIWKRQQQLAGNGAPFEESLAPLQERCESLVDIYSQLQQEVGAAGGELEPKTRASLTGRLDEVLRTLVTSCFLVEKQPPQVLKTQTKFQAGVRFLLGLRFLGAPAKPPLVRADMVTEKQARELSVPQGPGAGAESTGEIINNTVPLENSIPGNCCSALFKNLLLKKIKRCERKGTESVTEEKCAVLFSASFTLGPGKLPIQLQALSLPLVVIVHGNQDNNAKATILWDNAFSEMDRVPFVVAERVPWEKMCETLNLKFMAEVGTNRGLLPEHFLFLAQKIFNDNSLSMEAFQHRSVSWSQFNKEILLGRGFTFWQWFDGVLDLTKRCLRSYWSDRLIIGFISKQYVTSLLLNEPDGTFLLRFSDSEIGGITIAHVIRGQDGSPQIENIQPFSAKDLSIRSLGDRIRDLAQLKNLYPKKPKDEAFRSHYKPEQMGKDGRGYVPATIKMTVERDQPLPTPELQMPTMVPSYDLGMAPDSSMSMQLGPDMVPQVYPPHSHSIPPYQGLSPEESVNVLSAFQEPHLQMPPSLGQMSLPFDQPHPQGLLPCQPQEHAVSSPDPLLCSDVTMVEDSCLSQPVTAFPQGTWIGEDIFPPLLPPTEQDLTKLLLEGQGESGGGSLGAQPLLQPSHYGQSGISMSHMDLRANPSW",Kd,26.7 ± 12.3 nM
